Kd, koff and kon data for one molecule are collected here from US20210324094A1 (MOGAM INSTITUTE FOR BIOMEDICAL RESEARCH, published 2021).

One test concerns the target T1, Mouse IR (mouse, UniProt P15208 28-946, limits assumed).
T1 construct: also called mouse insulin receptor
The experiment in a line: SPR, IR immobilised on CM5 chip, IR739 flowed, pH 7.0. The protocol: (§1) Human IR or mouse IR at 1 μg/ml was immobilized with acetate (pH 4.0) on a CM5 sensor chip. […] For measurement conditions, a flow rate was set as 30 μl/min, and an association time and a dissociation time were set as 120 seconds and 600 seconds, respectively. For regeneration, 10 mM glycine-HCl (pH 1.5) was flowed for 30 seconds.

A further test addresses T2, Human IR (human, UniProt P06213 28-956, limits assumed).
T2 construct: the natural receptor is processed into alpha and beta chains; also called human insulin receptor
The description is as above. The method, then:
as §1

B1: IR739 (antibody, human IgG1, kappa, V domains shown)
VH: EVQLVESGGGLVQPGGSLRLSCAASGFTFSSYYMSWVRQAPGKGLEWVSAISYGGSSTYYADSVKGRFTISRDNSKNTLYLQMNSLRAEDTAVYYCARHPSYGTVNHAYFDVWGQGTLVTVSS
VL: DIQMTQSPSSLSASVGDRVTITCGASRDVSSYLAWYQQKPGKAPKLLIYDANILQSGVPSRFSGSGSGTDFTLTISSLQPEDFATYYCLEYNNLPLTFGQGTKVEIKR
notes: Conventional IgG from a human synthetic scFv library; also called IR739 antibody; anti-IR antibody
On to B1, for which, in the test with Mouse IR, the dissociation constant (Kd) turned out to be 0.0064 µM, the off-rate (koff) is 0.00061 s⁻¹ and the kon was 95300 M⁻¹ s⁻¹. For the same molecule, in the test with Human IR, the affinity, expressed as Kd, was 0.015 µM; the dissociation rate constant (koff) was 0.00144 s⁻¹; the kon is 96000 M⁻¹ s⁻¹.
